In patent publication US20060030527A1:

Target: Fc receptor on THP-1 cells
Experiment: cell-based or functional assay

TNF secretion by THP-1 cells on wells coated with 10 ug/well heat aggregated protein: > 40 ng/well
Substance: human IgG1 (heat aggregated, plate coated) (antibody)
